For five substances, Kd, kon and koff results are on record in PMC4220304.

A word on the Kd: it is the concentration at which binding is half-saturated. Broadly, the kon is a measure of how fast the partners come together. What is called koff is the rate constant with which the complex falls apart.

The test addresses L363 antibody (anti-CD1d-α-GalCer). Kind of test: SPR. On the technique in general: In SPR one partner is held on a chip, and binding of the other changes the refractive index at the surface.

Take “CD1d loaded with C24:1 α-GalCer (from UniProt P11609 22-297; P01887 21-119) (complex)”: the Kd is 350 nM and the kon was 142000 M⁻¹ s⁻¹.
In turn, “CD1d loaded with α-GalCer (from UniProt P11609 22-297; P01887 21-119) (complex)” showed a Kd of 96.7 nM and a kon of 85700 M⁻¹ s⁻¹.
“CD1d loaded with α-GluCer (from UniProt P11609 22-297; P01887 21-119) (complex)” gave a Kd of 5020 nM, a koff of 0.471 s⁻¹ and a kon of 93700 M⁻¹ s⁻¹.
On to “CD1d loaded with α-lyso-galactosylceramide (α-psychosine) (from UniProt P11609 22-297; P01887 21-119) (complex)”, for which the Kd came out at 2230 nM and the kon stood at 943000 M⁻¹ s⁻¹.
In turn, “CD1d loaded with α-lyso-glucosylceramide (α-glucopsychosine) (from UniProt P11609 22-297; P01887 21-119) (complex)” had a Kd of 8140 nM, a koff of 0.115 s⁻¹ and a kon of 4590 M⁻¹ s⁻¹.
